Consider 4 molecules from paper PMC10208892 (The Journal of Biological Chemistry, 2023).

Numbering of substitutions follows the chain as printed.

In assay [1] the target is T1, VPS33B with C-terminal biotinylation signal (human, UniProt Q9H267 1-617, biotin on lysine 41 of the biotinylation signal).
T1 sequence: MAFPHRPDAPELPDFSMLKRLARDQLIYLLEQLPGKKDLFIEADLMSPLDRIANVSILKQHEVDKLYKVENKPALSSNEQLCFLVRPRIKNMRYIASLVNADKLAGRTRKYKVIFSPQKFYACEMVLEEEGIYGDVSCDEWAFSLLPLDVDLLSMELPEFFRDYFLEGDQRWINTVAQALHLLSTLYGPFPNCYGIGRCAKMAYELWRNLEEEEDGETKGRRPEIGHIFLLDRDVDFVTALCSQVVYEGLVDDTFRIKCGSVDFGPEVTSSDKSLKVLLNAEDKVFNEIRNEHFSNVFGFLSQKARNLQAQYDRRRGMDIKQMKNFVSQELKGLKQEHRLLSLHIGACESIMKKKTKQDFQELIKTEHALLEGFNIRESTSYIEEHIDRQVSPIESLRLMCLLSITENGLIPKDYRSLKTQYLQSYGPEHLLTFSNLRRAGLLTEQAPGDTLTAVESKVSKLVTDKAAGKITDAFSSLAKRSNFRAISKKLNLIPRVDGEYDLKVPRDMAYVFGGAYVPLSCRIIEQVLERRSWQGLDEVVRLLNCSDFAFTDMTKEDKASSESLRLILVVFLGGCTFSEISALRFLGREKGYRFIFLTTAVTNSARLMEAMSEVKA
The assay is described as follows: co-IP.

The target of another assay is T2, VPS33B S243F (human, UniProt Q9H267 1-617, S243F).
T2 sequence: T1 sequence with S243F
The assay is described as follows: co-IP.

The target of another assay is T3, VPS33B H344D (human, UniProt Q9H267 1-617, H344D).
T3 sequence: T1 sequence with H344D
The assay is described as follows: co-IP.

Assay [2] deals with T4, VPS33B, untagged, expressed in yeast (human, UniProt Q9H267 1-617).
T4 sequence: T1 sequence
Description: native gel or EMSA. Background: A gel shift assay detects complexes by their altered migration in electrophoresis.

The target in assay [3] is T5, HA-VPS33B, expressed in yeast (human, UniProt Q9H267 1-617).
T5 sequence: T1 sequence
The assay is described as follows: co-IP.

Assay [4] deals with T4, VPS33B, untagged, expressed in yeast. Description: co-IP.

B1: VPS16B-3xFLAG, expressed in yeast (natural protein)
chain: MNRTKGDEEEYWNSSKFKAFTFDDEDDELSQLKESKRAVNSLRDFVDDDDDDDLERVSWSGEPVGSISWSIRETAGNSGSTHEGREQLKSRNSFSSYAQLPKPTSTYSLSSFFRGRTRPGSFQSLSDALSDTPAKSYAPELGRPKGEYRDYSNDWSPSDTVRRLRKGKVCSLERFRSLQDKLQLLEEAVSMHDGNVITAVLIFLKRTLSKEILFRELEVRQVALRHLIHFLKEIGDQKLLLDLFRFLDRTEELALSHYREHLNIQDPDKRKEFLKTCVGLPFSAEDSAHIQDHYTLLERQIIIEANDRHLESAGQTEIFRKHPRKASILNMPLVTTLFYSCFYHYTEAEGTFSSPVNLKKTFKIPDKQYVLTALAARAKLRAWNDVDALFTTKNWLGYTKKRAPIGFHRVVEILHKNNAPVQILQEYVNLVEDVDTKLNLATKFKCHDVVIDTYRDLKDRQQLLAYRSKVDKGSAEEEKIDALLSSSQIRWKN
Consider B1, for which the binding result (in assay [1]; with VPS33B S243F; in the assay with VPS33B H344D; in assay [2]) was “binds” in each case.

B2: HA-VPS16B-3xFLAG, expressed in yeast (natural protein)
chain: B1 chain
As for B2, the binding result in assay [3] was “binds”.

B3: VPS16B(143–316)-3xFLAG (domain or fragment)
chain: RPKGEYRDYSNDWSPSDTVRRLRKGKVCSLERFRSLQDKLQLLEEAVSMHDGNVITAVLIFLKRTLSKEILFRELEVRQVALRHLIHFLKEIGDQKLLLDLFRFLDRTEELALSHYREHLNIQDPDKRKEFLKTCVGLPFSAEDSAHIQDHYTLLERQIIIEANDRHLESAGQT
As to B3, the binding result in assay [4] is on record as “binds”.

B4: VPS16B(143–493)-3xFLAG (domain or fragment)
chain: RPKGEYRDYSNDWSPSDTVRRLRKGKVCSLERFRSLQDKLQLLEEAVSMHDGNVITAVLIFLKRTLSKEILFRELEVRQVALRHLIHFLKEIGDQKLLLDLFRFLDRTEELALSHYREHLNIQDPDKRKEFLKTCVGLPFSAEDSAHIQDHYTLLERQIIIEANDRHLESAGQTEIFRKHPRKASILNMPLVTTLFYSCFYHYTEAEGTFSSPVNLKKTFKIPDKQYVLTALAARAKLRAWNDVDALFTTKNWLGYTKKRAPIGFHRVVEILHKNNAPVQILQEYVNLVEDVDTKLNLATKFKCHDVVIDTYRDLKDRQQLLAYRSKVDKGSAEEEKIDALLSSSQIRWKN
As to B4, the binding result in assay [4] is on record as “binds”.
